Reference: US8796227B2, “Peptides for inhibiting chemokine binding to chemokine receptors” (Biokine Therapeutics Ltd., priority 2002, dated 2014)

Legend:
Assay in all cases: Biovalidation: laminar flow assay, chemokine and VCAM-1 activated adhesion of T cells
Type in all cases: cell-based
IL-8 = target: T1, IL-8 (Homo sapiens, UniProt P10145); parameters: key to Level of Antagonistic Effect / Level of Effect: + 20%; ++ 50%; +++ 100%; − No effect; conditions: VCAM-1
T1 construct: human IL-8, (72 amino acids) (Cat. No. 200-08M); purchased PeproTech, Inc. 200-08M
T1 sequence (P10145 28-99): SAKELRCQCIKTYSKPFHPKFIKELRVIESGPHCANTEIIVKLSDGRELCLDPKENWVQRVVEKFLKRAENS

MIG = target: T2, MIG (Homo sapiens, UniProt Q07325); conditions: T cell adhesion under flow, VCAM-1
T2 construct: purchased PeproTech, Inc. 300-26
T2 sequence (Q07325 23-125): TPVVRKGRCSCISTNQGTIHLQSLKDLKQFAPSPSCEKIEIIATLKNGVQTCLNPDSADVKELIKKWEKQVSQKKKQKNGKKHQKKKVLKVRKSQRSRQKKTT
Protocol: (§1) 50 ml blood was added to 10 ml Dextran (Dextran T-500 6% w/v) in PBS (phosphate buffer saline), and 7 ml citrate buffer (25 g citrate, 8 g citric acid in 500 ml PBS). The solution was incubated for 30 min at 25° C. 10 ml Ficoll 1077 (Sigma) was added to the bottom of the tube. The tube was then centrifuged at 2,000 rpm for 30 min, at 18° C., (with the brake mode of the centrifuge off). The interphase was collected and washed twice with 8 ml PBS-5% FCS (fetal calf serum), followed by centrifugation at 1,400 rpm, for 5 min, at 18° C. The cells were re-suspended in PBS-5% FCS at a concentration less than 10^8/ml. 2 ml of the cell solution were applied and incubated for 45 min at 25° C. on a Perspex Nylon wool column, which was pre-soaked with PBS-5% FCS. Each column was washed with 8 ml PBS-5% FCS and the cells (T-cells and erythrocytes) were eluted by 50 ml of 5 mM EDTA in PBS. A red pellet was obtained by centrifugation at 1,400 rpm, at 4° C., for 5 min, with the brake on. In order to perform lysis of the erythrocytes, the red pellet was re-suspended in 5 ml lysis-buffer (155 mM NH4Cl, 10 mM KHCO3, 0.1 mM EDTA, X0.1PBS) for 4 min, followed by immediate addition of 50 ml of PBS-EDTA.
(§2) Following centrifugation at 1,400 rpm, at 4° C., for 5 min with brake on, the pellet was washed again with 50 ml PBS-EDTA and re-centrifuged under the same conditions. A white pellet was obtained and re-suspended in RPMI/10% FCS/L-glutamine/sodium pyruvate/antibiotics at a concentration of 3^X10^6 cells/ml. The cells were incubated for 2 h at 37° C., followed by collection of the non-adherent cells. The cells were ready for use in experiments after overnight incubation at 37° C. […]
Laminar flow assays were performed as follows. Polystyrene plates (B.D) were coated with soluble VCAM-1 at 10 μg/ml in the presence of 2 μg/ml HSA carrier. The plates were washed three times with PBS and blocked with HSA (20 μg/ml in PBS) for 2 hrs at room temperature. Alternatively, washed plates were coated with 10 μg/ml MIG chemokine in PBS for 30 min at room temperature, before being blocked with HSA. The plates were assembled as the lower wall of a parallel wall flow chamber and mounted on the stage of an inverted microscope. The peptide, as described previously, (10 μg/ml) was allowed to settle on the substrate coated chamber wall for 10 min, at 37° C. and then washed. T cells (5×10^6/ml, purity >98%) were suspended in binding buffer, perfused into the chamber and allowed to settle on the substrate coated chamber wall for 1 min, at 37° C. Flow was initiated and increased in 2 to 2.5 fold increments every 5 sec. generating controlled shear stresses on the wall. Cells were visualized in a 20× objective of an inverted phase-contrast Diaphot Microscope (Nikon, Japan) and photographed with a long integration LIS-700 CCD video camera (Applitech; Holon, Israel), connected to a video recorder (AG-6730 S-VHS, Panasonic, Japan). The number of adherent cells resisting detachment by the elevated shear forces was determined after each interval by analysis of videotaped cell images, and was expressed as the percent of originally settled cells. All adhesion experiments were performed at least three times on multiple test fields.

Eotaxin = target: T3, Eotaxin (Homo sapiens, UniProt P51671)
T3 construct: purchased PeproTech, Inc. 300-21

SDF-1α = target: T4, SDF-1α (Homo sapiens, UniProt P48061)
T4 construct: purchased PeproTech, Inc. 300-28A
Protocol: as §1, §2
Laminar flow assays were performed as follows. […] The number of adherent cells resisting detachment by the elevated shear forces was determined after each interval by analysis of videotaped cell images, and was expressed as the percent of originally settled cells. […]

[1] = T cell adhesion under flow, VCAM-1

T3 sequence (P51671 24-97): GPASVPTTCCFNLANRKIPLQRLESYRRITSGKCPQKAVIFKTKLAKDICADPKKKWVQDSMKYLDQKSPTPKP
T4 sequence (P48061 22-89 limits assumed): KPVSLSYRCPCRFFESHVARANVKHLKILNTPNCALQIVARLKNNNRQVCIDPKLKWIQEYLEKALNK

Sequence: QIPQMRILHPYG [BKT-P23]
- Level of Effect (IL-8; Chemokine checked IL-8, T cells, peptide 10 μg/ml): −
- Abolishment of the activity of IL-8 (IL-8; T cell adhesion under flow): no effect
- Reduction of the activity of MIG (MIG): no effect
- Kind of Effect (Eotaxin; Chemokine checked EOTAXIN): Antagonist
- Level of Effect (Eotaxin; Chemokine checked Eotaxin, T cells, VCAM-1, peptide 10 μg/ml): +++ (+++ 100%)
- Blocking of the activity of Eotaxin (Eotaxin; [1]): 100%
- Kind of Effect (SDF-1α; Chemokine checked SDF-1α): Antagonist
- Level of Effect (SDF-1α; Chemokine checked SDF-1α, T cells, VCAM-1, peptide 10 μg/ml): + (+ 20%)
- Blocking of the activity of SDF-1α (SDF-1α; [1]): about 20%
